Source: paper PMC8050864

How the values were obtained:
[1] = biological target: FL PFV intasome (tetramer of full-length prototype foamy virus integrase bound to two viral DNA ends) (prototype foamy virus); assay: pull-down
[2] = biological target: PFV IN(ΔCTD) intasome: full-length PFV IN(K120E) at the inner protomers, PFV IN(D273K, ΔCTD) at the outer protomers (prototype foamy virus); assay: pull-down

With “601 nucleosome treated with trypsin to remove the histone tails (from UniProt P04908 1-130; O60814 1-126; P68431 1-136; P62805 1-103) (complex)” the percent of the lane's Coomassie signal in the TL H4 band on the beads [1] was 11.2% and the percent of the lane's Coomassie signal in the TL H4 band on the beads [2] was 2.5%.
